The series has as its system Saccharomyces cerevisiae. In words: protein stability index of tFT-peptide fusion (C-terminal peptide) (PSI (0-1 scale)); higher = more stable (slower turnover). To be noted: temperature: 30 C. How it is done:
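MPS profiling in S. cerevisiae of the yeast C-terminome library: the last 12 aa of each annotated ORF are fused to the C-terminus of a sfGFP-mCherry timer, after a GGGS linker. Cells are FACS-sorted into 8 mCherry/sfGFP bins and deep-sequenced. PSI runs from 0 (unstable) to 1 (stable); wild type and das1Δ backgrounds, two technical replicates each.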

[1] abbreviates: genetic background: das1 deletion.

± gives the standard deviation of the averaged measurements.

Regarding SSTTALDALNKE [TGL1 C-terminal 12 aa], the protein stability index reads like this: under setting [1], 0.696 ± 0.0083; (genetic background: wild type) 0.684 ± 0.048.
SSVKNSVEMTDF [TDA11 C-terminal 12 aa]: the protein stability index is, setting by setting: under setting [1], 0.7099 ± 0.0049; (genetic background: wild type) 0.698 ± 0.012.
Regarding SSYNSNVGHIKN [WHI3 C-terminal 12 aa], the protein stability index runs as follows: under setting [1], 0.705 ± 0.019; (genetic background: wild type) 0.736 ± 0.0042.
Regarding STIQTTSVDPTT [BSC1 C-terminal 12 aa], the protein stability index under setting [1] stood at 0.7104 ± 0.0039 and the protein stability index (genetic background: wild type) is 0.682 ± 0.036.
STIRRLREMVEA [RPL43A C-terminal 12 aa] had a protein stability index under setting [1] of 0.547 ± 0.013 and a protein stability index (genetic background: wild type) of 0.539 ± 0.028.
In turn, STKILETSANYL [RVB1 C-terminal 12 aa] returned a protein stability index under setting [1] of 0.69 ± 0.019 and a protein stability index (genetic background: wild type) of 0.679 ± 0.047.
With STLSRPFTWEEI [ATG34 C-terminal 12 aa], the protein stability index reads like this: under setting [1], 0.715 ± 0.031; (genetic background: wild type) 0.75193 ± 0.00031.
Consider SVHLDQLLDGKE [CSI2 C-terminal 12 aa], for which the protein stability index was 0.714 ± 0.0086 under setting [1] and 0.669 ± 0.013 (genetic background: wild type).
The matching figures for SVLQQTSKEPFW [HOS4 C-terminal 12 aa]: 0.732 ± 0.016 and 0.6975 ± 0.0026.
On to SYEIFEGSKKVM [CET1 C-terminal 12 aa], for which the protein stability index runs as follows: under setting [1], 0.699 ± 0.033; (genetic background: wild type) 0.6785 ± 0.0039.
The matching figures for SYKSNQPSSQNT [MDM36 C-terminal 12 aa]: 0.672 ± 0.017 and 0.675 ± 0.0096.
As for TAAQMLEVQNEA [ARI1 C-terminal 12 aa], the protein stability index under setting [1] amounted to 0.6837 ± 0.0021 and the protein stability index (genetic background: wild type) was found to be 0.7016 ± 0.0034.
TALDYVSEKKKN [STE24 C-terminal 12 aa] returned a protein stability index under setting [1] of 0.679 ± 0.012 and a protein stability index (genetic background: wild type) of 0.7093 ± 0.0027.
As to TDGPNEKWLPDY [SKS1 C-terminal 12 aa], the protein stability index is, setting by setting: under setting [1], 0.7099 ± 0.0056; (genetic background: wild type) 0.712 ± 0.046.
As for TDISGEKNSSKI [RLM1 C-terminal 12 aa], the protein stability index by setting is: under setting [1], 0.7039 ± 0.0055; (genetic background: wild type) 0.756 ± 0.031.
For TDTTLIYDIDLE [SPT8 C-terminal 12 aa], the protein stability index is, setting by setting: under setting [1], 0.709 ± 0.036; (genetic background: wild type) 0.718 ± 0.039.
Take TEEVEKAISKSQ [YFH1 C-terminal 12 aa]: the protein stability index runs as follows: under setting [1], 0.7018 ± 0.0027; (genetic background: wild type) 0.7208 ± 0.0067.
Taken in the same sequence, the figures for TESENDALDDLL [TLG2 C-terminal 12 aa] were 0.714 ± 0.013 and 0.707 ± 0.0078.
The matching figures for TGMGAAAIFIKE [POT1 C-terminal 12 aa]: 0.688 ± 0.04 and 0.752 ± 0.049.
For TIDFFDPVKLKR [YEL025C C-terminal 12 aa], the protein stability index is, setting by setting: under setting [1], 0.724 ± 0.008; (genetic background: wild type) 0.755 ± 0.015.
In the case of TKDGEVVKESKK [PET117 C-terminal 12 aa], the protein stability index is 0.677 ± 0.034 under setting [1] and 0.676 ± 0.027 (genetic background: wild type).
Turning to TKEEIMHGLQAK [RPN5 C-terminal 12 aa], the protein stability index amounted to 0.682 ± 0.024 under setting [1] and 0.728 ± 0.01 (genetic background: wild type).
On to TLEDLGAKVSLE [MNP1 C-terminal 12 aa], for which the protein stability index worked out at 0.696 ± 0.011 under setting [1] and 0.711 ± 0.031 (genetic background: wild type).
The matching figures for TLNFEEARKEYV [YDR509W C-terminal 12 aa]: 0.713 ± 0.016 and 0.728 ± 0.035.
For TNGNKSCLYWRV [FMP25 C-terminal 12 aa], the protein stability index is 0.678 ± 0.012 under setting [1] and 0.66 ± 0.044 (genetic background: wild type).
The matching figures for TNQASPHHIFRG [ORA1 C-terminal 12 aa]: 0.702 ± 0.016 and 0.752 ± 0.038.
As for TQEMENTKLAES [GIS1 C-terminal 12 aa], the protein stability index runs as follows: under setting [1], 0.692 ± 0.01; (genetic background: wild type) 0.757 ± 0.0079.
Taken in the same sequence, the figures for TRSSGDDQVFVF [PGA3 C-terminal 12 aa] were 0.707 ± 0.0082 and 0.707 ± 0.012.
In turn, TSTITTTITMTL [SHE10 C-terminal 12 aa] registered a protein stability index under setting [1] of 0.636 ± 0.041 and a protein stability index (genetic background: wild type) of 0.652 ± 0.042.
Taken in the same sequence, the figures for TTDNVTVMVVFL [PTC1 C-terminal 12 aa] were 0.489 ± 0.0077 and 0.5071 ± 0.0035.
With TVFASNSFGVYV [OST5 C-terminal 12 aa], the protein stability index turned out to be 0.669 ± 0.02 under setting [1] and 0.709 ± 0.06 (genetic background: wild type).
As to TVGTGLITRIIE [TUF1 C-terminal 12 aa], the protein stability index stood at 0.694 ± 0.032 under setting [1] and 0.6945 ± 0.0066 (genetic background: wild type).
Taken in the same sequence, the figures for TVHQLRDRGFDI [ENV9 C-terminal 12 aa] were 0.73 ± 0.0077 and 0.717 ± 0.014.
Taken in the same sequence, the figures for TVIALLVGWIYY [SCS22 C-terminal 12 aa] were 0.241 ± 0.01 and 0.255 ± 0.0075.
Turning to TVSNETKEARET [SPT14 C-terminal 12 aa], the protein stability index is 0.6843 ± 0.0053 under setting [1] and 0.6715 ± 0.0044 (genetic background: wild type).
Taken in the same sequence, the figures for TWFKYFKWLDMF [MRX3 C-terminal 12 aa] were 0.7723 ± 0.0025 and 0.217 ± 0.0084.
In the case of TYMLNGPAGLLM [YNL165W C-terminal 12 aa], the protein stability index runs as follows: under setting [1], 0.6979 ± 0.0034; (genetic background: wild type) 0.684 ± 0.024.
For TYSTLINIDVSL [NIC96 C-terminal 12 aa], the protein stability index runs as follows: under setting [1], 0.702 ± 0.059; (genetic background: wild type) 0.688 ± 0.046.
Take VAEKIPENETTH [ISW1 C-terminal 12 aa]: the protein stability index reads like this: under setting [1], 0.6915 ± 0.0016; (genetic background: wild type) 0.679 ± 0.031.
VAPKPKTKQEKK [WRS1 C-terminal 12 aa]: the protein stability index is 0.684 ± 0.0071 under setting [1] and 0.658 ± 0.022 (genetic background: wild type).
The matching figures for VDGFNDALQLSK [HEM14 C-terminal 12 aa]: 0.685 ± 0.022 and 0.708 ± 0.026.
In the case of VDMTSIFDFMLN [POL1 C-terminal 12 aa], the protein stability index runs as follows: under setting [1], 0.7408 ± 0.0055; (genetic background: wild type) 0.709 ± 0.025.
The matching figures for VDTILDEDFLLR [APC11 C-terminal 12 aa]: 0.715 ± 0.016 and 0.712 ± 0.013.
For the sequence VEHRYHKSVSRL [YBR012C C-terminal 12 aa], the protein stability index came to 0.816 ± 0.046 under setting [1] and 0.759 ± 0.053 (genetic background: wild type).
On to VENEDEPLFIER [INP51 C-terminal 12 aa], for which the protein stability index amounted to 0.708 ± 0.0089 under setting [1] and 0.683 ± 0.0088 (genetic background: wild type).
VENTTVDFNYDM [YLR179C C-terminal 12 aa] returned a protein stability index under setting [1] of 0.69 ± 0.016 and a protein stability index (genetic background: wild type) of 0.681 ± 0.03.
The matching figures for VFKSKCKKIYIG [DGR1 C-terminal 12 aa]: 0.7125 ± 0.0067 and 0.457 ± 0.04.
VFNNISLNFYIQ [YLL020C C-terminal 12 aa]: the protein stability index is, setting by setting: under setting [1], 0.782 ± 0.059; (genetic background: wild type) 0.692 ± 0.0021.
For VGFCGLYYYFRK [YPR195C C-terminal 12 aa], the protein stability index reads like this: under setting [1], 0.647 ± 0.018; (genetic background: wild type) 0.648 ± 0.015.
As to VIIKVFIRRSDA [YJL086C C-terminal 12 aa], the protein stability index was 0.515 ± 0.024 under setting [1] and 0.461 ± 0.014 (genetic background: wild type).
With VIPHRGKKPVQN [AUS1 C-terminal 12 aa], the protein stability index by setting is: under setting [1], 0.68051 ± 0.00019; (genetic background: wild type) 0.681 ± 0.037.
In the case of VKDIHGRIPEML [AXL2 C-terminal 12 aa], the protein stability index was 0.6952 ± 0.0058 under setting [1] and 0.694 ± 0.015 (genetic background: wild type).
On to VKEYYKKSDVGR [ATG9 C-terminal 12 aa], for which the protein stability index amounted to 0.7026 ± 0.004 under setting [1] and 0.66 ± 0.011 (genetic background: wild type).
In the case of VKFVYRQRIALV [YLL037W C-terminal 12 aa], the protein stability index was found to be 0.577 ± 0.0095 under setting [1] and 0.195 ± 0.0078 (genetic background: wild type).
Regarding VKSLQVKKSHLK [CDC12 C-terminal 12 aa], the protein stability index is, setting by setting: under setting [1], 0.704 ± 0.0088; (genetic background: wild type) 0.742 ± 0.13.
Consider VLGFFKRRSMKI [FRK1 C-terminal 12 aa], for which the protein stability index under setting [1] stood at 0.72 ± 0.014 and the protein stability index (genetic background: wild type) amounted to 0.678 ± 0.018.
For the sequence VLNFFKRRSMRV [KIN4 C-terminal 12 aa], the protein stability index is 0.625 ± 0.013 under setting [1] and 0.634 ± 0.084 (genetic background: wild type).
Consider VLSVISAVFGLI [PLB1 C-terminal 12 aa], for which the protein stability index was 0.674 ± 0.016 under setting [1] and 0.672 ± 0.045 (genetic background: wild type).
In the case of VLTAGVNSVAIK [RPN11 C-terminal 12 aa], the protein stability index reads like this: under setting [1], 0.6646 ± 0.0021; (genetic background: wild type) 0.63 ± 0.0097.
Take VLVCFQTFILLQ [YDL032W C-terminal 12 aa]: the protein stability index runs as follows: under setting [1], 0.152 ± 0.012; (genetic background: wild type) 0.162 ± 0.0082.
For VMLFSSNHQALG [MAG2 C-terminal 12 aa], the protein stability index reads like this: under setting [1], 0.704 ± 0.014; (genetic background: wild type) 0.693 ± 0.014.
Regarding VNFDIEEEQEGQ [JJJ3 C-terminal 12 aa], the protein stability index by setting is: under setting [1], 0.685 ± 0.011; (genetic background: wild type) 0.791 ± 0.071.
Take VRKGQEKSKKHS [SEI1 C-terminal 12 aa]: the protein stability index reads like this: under setting [1], 0.678 ± 0.01; (genetic background: wild type) 0.737 ± 0.06.
Turning to VRVPKKSKKLKK [PDR10 C-terminal 12 aa], the protein stability index by setting is: under setting [1], 0.7169 ± 0.0069; (genetic background: wild type) 0.705 ± 0.012.
With VSKELRSRDLLD [RPE1 C-terminal 12 aa], the protein stability index is, setting by setting: under setting [1], 0.68 ± 0.027; (genetic background: wild type) 0.699 ± 0.0075.
Sequence VSNNLIIDEETF [BIM1 C-terminal 12 aa] showed a protein stability index under setting [1] of 0.7174 ± 0.0056 and a protein stability index (genetic background: wild type) of 0.7214 ± 0.0042.
Consider VSSLRKHGEHYS [TRM82 C-terminal 12 aa], for which the protein stability index is, setting by setting: under setting [1], 0.704 ± 0.021; (genetic background: wild type) 0.6079 ± 0.0053.
As for VTSIMDMPISRE [MVP1 C-terminal 12 aa], the protein stability index reads like this: under setting [1], 0.685 ± 0.019; (genetic background: wild type) 0.684 ± 0.019.
